According to paper PMC6745058 (Molecular cell, 2019):

Biological target: T1, Rtt107NTD (BRCT1-4 domains of Rtt107, residues 2-513) (S. cerevisiae, UniProt P38850 2-513)
T1 sequence (looked up): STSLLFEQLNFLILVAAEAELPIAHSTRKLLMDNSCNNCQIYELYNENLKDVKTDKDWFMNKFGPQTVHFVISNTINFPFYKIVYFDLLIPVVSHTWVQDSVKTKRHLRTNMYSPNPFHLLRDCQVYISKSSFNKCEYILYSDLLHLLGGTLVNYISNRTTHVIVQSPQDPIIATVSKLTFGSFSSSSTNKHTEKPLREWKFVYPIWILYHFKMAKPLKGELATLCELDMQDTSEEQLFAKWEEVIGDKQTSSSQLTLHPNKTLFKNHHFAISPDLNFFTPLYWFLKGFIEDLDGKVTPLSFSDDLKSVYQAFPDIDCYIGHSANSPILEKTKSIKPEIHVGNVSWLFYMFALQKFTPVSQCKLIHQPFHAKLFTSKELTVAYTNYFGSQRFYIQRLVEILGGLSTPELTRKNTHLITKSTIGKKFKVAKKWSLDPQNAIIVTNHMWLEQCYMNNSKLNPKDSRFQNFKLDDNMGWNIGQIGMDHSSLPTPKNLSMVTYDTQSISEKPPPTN
Assay: ITC

B1: Mms22RIM peptide (Mms22 residues 2-38) (peptide, UniProt Q06164 2-38, looked up)
chain: DVDEPNPIVISDSEATDEEISIIYEPEFNENYLWAEE
  Kd: 15 nM
